The values that follow come from patent publication US20200353078A1 (AstraZeneca / MedImmune, published 2020).

The assay has as its target T1, Human ST2 ECD-Flag-his10 (human, UniProt Q01638 19-328).
T1 construct: also called Human ST2 Flag His; FLAG® His-tagged human ST2
T1 sequence: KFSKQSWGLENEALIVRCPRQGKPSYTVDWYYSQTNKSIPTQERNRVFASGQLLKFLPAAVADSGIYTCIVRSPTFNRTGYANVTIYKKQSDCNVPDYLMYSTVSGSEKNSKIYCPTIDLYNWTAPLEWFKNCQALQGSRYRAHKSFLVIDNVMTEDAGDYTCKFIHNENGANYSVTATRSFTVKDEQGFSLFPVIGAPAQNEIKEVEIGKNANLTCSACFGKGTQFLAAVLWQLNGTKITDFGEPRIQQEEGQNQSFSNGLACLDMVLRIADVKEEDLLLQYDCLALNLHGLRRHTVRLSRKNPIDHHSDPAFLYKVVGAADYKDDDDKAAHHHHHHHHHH
The experiment in a line: SPR Biacore T100, 25 C, biotinylated human IL-33 on streptavidin C1 chip, ST2-Flag-His10 as analyte. As to the method: Fab fragments were generated by papain cleavage from full length IgG1 and purified by SEC. […] Streptavidin was covalently immobilised to a C1 chip surface using standard amine coupling techniques at a concentration of […] in 10 mM Sodium acetate pH 4.5. […] Recombinant, enzymatically biotinylated human IL-33 (produced in-house) was titrated onto the streptavidin chip surface at […] in HBS-EP+ buffer to enable ˜30 RUs of Fab binding at saturation (Rmax). This low level of analyte binding ensured minimal mass transport effects.
The IL-33 Fab was serially diluted from 5 nM to 78 pM in HBS-EP+ buffer and flowed over the chip at 50 μl/min, with 3 minutes association and up to 30 minutes dissociation. Multiple buffer only injections were made under the same conditions to allow for double reference subtraction of the final sensorgram sets, which were analysed using the BiaEval software (version 2.0.1). The chip surface was fully regenerated with pulses of 3M MgCl₂.
The affinity of ST2-Flag-His10 (SEQ. ID no. 650) expressed in HEK-EBNA cells for human IL-33 was determined by BIACORE™ using the same methods described above.

B1: Recombinant human IL-33 (construct not named in the example) (ligand, UniProt O95760 112-270, looked up)
chain: SITGISPITEYLASLSTYNDQSITFALEDESYEIYVEDLKKDEKKDKVLLSYYESQHPSNESGDGVDGKMLMVTLSPTKDFWLHANNKEHSVELHKCEKPLPDQAFFVLHNMHSNCVSFECKTDPGVFIGVKDNHLALIKVDSSENLCTENILFKLSET
notes: also called Recombinant, enzymatically biotinylated human IL-33 (produced in-house); IL-33 (200 nM)
Take B1: the Kd is 2.9 pM, the koff amounted to 4.35e-05 s⁻¹ and the kon was 1.52e+07 M⁻¹ s⁻¹.

What is called Kd is the concentration at which binding is half-saturated. For orientation: koff means a measure of how fast the partners let go of each other. The kon is the second-order rate constant of association.
